This assay concerns the target αvβ3 receptors on M21 human melanoma cells (human) (UniProt P06756). Put plainly: cell-based or functional assay.
UniProt P06756, sequence (P06756 31-1048, chain 1 of 2): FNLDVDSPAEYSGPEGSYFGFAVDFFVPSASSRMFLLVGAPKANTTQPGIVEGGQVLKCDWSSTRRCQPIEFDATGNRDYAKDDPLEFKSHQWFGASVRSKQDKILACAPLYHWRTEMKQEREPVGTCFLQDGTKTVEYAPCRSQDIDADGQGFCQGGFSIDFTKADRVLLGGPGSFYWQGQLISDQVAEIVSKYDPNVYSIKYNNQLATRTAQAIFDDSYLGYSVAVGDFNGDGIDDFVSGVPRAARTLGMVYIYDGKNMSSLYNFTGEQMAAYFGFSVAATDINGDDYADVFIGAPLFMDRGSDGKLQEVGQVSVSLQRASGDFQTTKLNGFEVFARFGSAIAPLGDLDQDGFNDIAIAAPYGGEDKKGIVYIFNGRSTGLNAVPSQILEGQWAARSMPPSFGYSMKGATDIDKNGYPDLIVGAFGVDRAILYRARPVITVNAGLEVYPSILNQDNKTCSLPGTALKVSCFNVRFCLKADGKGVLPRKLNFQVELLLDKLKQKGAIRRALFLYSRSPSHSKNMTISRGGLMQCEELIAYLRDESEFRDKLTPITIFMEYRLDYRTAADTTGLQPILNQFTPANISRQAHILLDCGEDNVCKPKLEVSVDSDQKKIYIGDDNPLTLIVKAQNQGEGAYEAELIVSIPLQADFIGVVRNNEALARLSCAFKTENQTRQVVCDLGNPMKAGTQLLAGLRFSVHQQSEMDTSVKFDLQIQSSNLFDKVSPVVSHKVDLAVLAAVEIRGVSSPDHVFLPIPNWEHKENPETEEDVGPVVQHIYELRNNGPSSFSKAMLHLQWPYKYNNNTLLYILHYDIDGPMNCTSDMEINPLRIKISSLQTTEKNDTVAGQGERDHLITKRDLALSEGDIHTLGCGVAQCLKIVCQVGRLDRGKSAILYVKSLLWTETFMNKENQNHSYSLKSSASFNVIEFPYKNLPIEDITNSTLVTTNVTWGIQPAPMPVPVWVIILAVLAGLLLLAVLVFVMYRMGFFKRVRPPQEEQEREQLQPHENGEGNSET
UniProt P06756, sequence (P05106 27-788, chain 2 of 2, further chain): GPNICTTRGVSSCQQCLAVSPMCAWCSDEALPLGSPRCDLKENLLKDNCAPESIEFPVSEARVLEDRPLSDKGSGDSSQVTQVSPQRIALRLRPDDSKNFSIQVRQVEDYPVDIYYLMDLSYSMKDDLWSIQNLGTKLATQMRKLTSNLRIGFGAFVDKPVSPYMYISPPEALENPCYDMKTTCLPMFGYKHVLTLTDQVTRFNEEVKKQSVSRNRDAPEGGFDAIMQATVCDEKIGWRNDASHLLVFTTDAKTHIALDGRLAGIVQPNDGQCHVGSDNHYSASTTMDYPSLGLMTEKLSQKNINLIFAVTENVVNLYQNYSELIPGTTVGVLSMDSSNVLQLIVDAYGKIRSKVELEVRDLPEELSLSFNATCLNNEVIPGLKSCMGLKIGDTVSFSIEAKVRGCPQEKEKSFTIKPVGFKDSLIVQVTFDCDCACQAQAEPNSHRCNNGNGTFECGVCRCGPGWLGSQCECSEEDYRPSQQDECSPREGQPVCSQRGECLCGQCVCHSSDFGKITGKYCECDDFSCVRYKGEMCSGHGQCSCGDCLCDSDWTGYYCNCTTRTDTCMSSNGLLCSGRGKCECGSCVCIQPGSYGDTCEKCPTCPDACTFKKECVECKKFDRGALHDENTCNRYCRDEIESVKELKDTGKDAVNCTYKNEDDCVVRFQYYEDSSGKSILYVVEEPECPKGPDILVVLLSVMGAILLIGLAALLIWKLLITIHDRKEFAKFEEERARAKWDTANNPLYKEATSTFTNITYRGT

“RGDTNF-α (targeted TNF-α expressing AAVP) (peptide)” showed a phage internalization assay, pfu/µl of 21500 pfu/µl.

As for “RGD (targeted null AAVP, Example 2) (peptide)”, the phage internalization assay, pfu/µl amounted to 14000 pfu/µl.

“fdTNF-α (non-targeted TNF-α expressing AAVP)” gave a phage internalization assay, pfu/µl of 600 pfu/µl.

fd (non-targeted null AAVP) displayed a phage internalization assay, pfu/µl of 300 pfu/µl.

These data come from patent US20100254896A1.
